We go through 12 molecules from publication PMC8298264, “Function of cofactor Akirin2 in the regulation of gene expression in model human neutrophil-like HL60 cells” (Bioscience Reports, 2021).

The labels stand for the following.
B1: Peroxiredoxin-2 (protein, UniProt P32119 2-198, looked up)
Peroxiredoxin-2: ASGNARIGKPAPDFKATAVVDGAFKEVKLSDYKGKYVVLFFYPLDFTFVCPTEIIAFSNRAEDFRKLGCEVLGVSVDSQFTHLAWINTPRKEGGLGPLNIPLLADVTRRLSEDYGVLKTDEGIAYRGLFIIDGKGVLRQITVNDLPVGRSVDEALRLVQAFQYTDEHGEVCPAGWKPGSDTIKPNVDDSKEYFSKHN
B2: Protein Churchill (protein, UniProt Q8WUH1 1-112, looked up)
Protein Churchill: MCGDCVEKEYPNRGNTCLENGSFLLNFTGCAVCSKRDFMLITNKSLKEEDGEEIVTYDHLCKNCHHVIARHEYTFSIMDEFQEYTMLCLLCGKAEDTISILPDDPRQMTLLF
B3: sp¦P46926¦GNPI1_HUMAN (protein, UniProt P46926 1-289, looked up)
Glucosamine-6-phosphate …: MKLIILEHYSQASEWAAKYIRNRIIQFNPGPEKYFTLGLPTGSTPLGCYKKLIEYYKNGDLSFKYVKTFNMDEYVGLPRDHPESYHSFMWNNFFKHIDIHPENTHILDGNAVDLQAECDAFEEKIKAAGGIELFVGGIGPDGHIAFNEPGSSLVSRTRVKTLAMDTILANARFFDGELTKVPTMALTVGVGTVMDAREVMILITGAHKAFALYKAIEEGVNHMWTVSAFQQHPRTVFVCDEDATLELKVKTVKYFKGLMLVHNKLVDPLYSIKEKETEKSQSSKKPYSD
B4: sp¦Q92945¦FUBP2_HUMAN (protein, UniProt Q92945 2-711, looked up)
Far upstream element-binding …: SDYSTGGPPPGPPPPAGGGGGAGGAGGGPPPGPPGAGDRGGGGPGGGGPGGGSAGGPSQPPGGGGPGIRKDAFADAVQRARQIAAKIGGDAATTVNNSTPDFGFGGQKRQLEDGDQPESKKLASQGDSISSQLGPIHPPPRTSMTEEYRVPDGMVGLIIGRGGEQINKIQQDSGCKVQISPDSGGLPERSVSLTGAPESVQKAKMMLDDIVSRGRGGPPGQFHDNANGGQNGTVQEIMIPAGKAGLVIGKGGETIKQLQERAGVKMILIQDGSQNTNVDKPLRIIGDPYKVQQACEMVMDILRERDQGGFGDRNEYGSRIGGGIDVPVPRHSVGVVIGRSGEMIKKIQNDAGVRIQFKQDDGTGPEKIAHIMGPPDRCEHAARIINDLLQSLRSGPPGPPGGPGMPPGGRGRGRGQGNWGPPGGEMTFSIPTHKCGLVIGRGGENVKAINQQTGAFVEISRQLPPNGDPNFKLFIIRGSPQQIDHAKQLIEEKIEGPLCPVGPGPGGPGPAGPMGPFNPGPFNQGPPGAPPHAGGPPPHQYPPQGWGNTYPQWQPPAPHDPSKAAAAAADPNAAWAAYYSHYYQQPPGPVPGPAPAPAAPPAQGEPPQPPPTGQSDYTKAWEEYYKKIGQQPQQPGAPPQQDYTKAWEEYYKKQAQVATGGGPGAPPGSQPDYSAAWAEYYRQQAAYYGQTPGPGGPQPPPTQQGQQQAQ
B5: sp¦P20618¦PSB1_HUMAN (protein, UniProt P20618 29-241, looked up)
Proteasome subunit beta type-1: RFSPYVFNGGTILAIAGEDFAIVASDTRLSEGFSIHTRDSPKCYKLTDKTVIGCSGFHGDCLTLTKIIEARLKMYKHSNNKAMTTGAIAAMLSTILYSRRFFPYYVYNIIGGLDEEGKGAVYSFDPVGSYQRDSFKAGGSASAMLQPLLDNQVGFKNMQNVEHVPLSLDRAMRLVKDVFISAAERDVYTGDALRICIVTKEGIREETVSLRKD
B6: sp¦Q14019¦COTL1_HUMAN (protein, UniProt Q14019 2-142, looked up)
Coactosin-like protein: ATKIDKEACRAAYNLVRDDGSAVIWVTFKYDGSTIVPGEQGAEYQHFIQQCTDDVRLFAFVRFTTGDAMSKRSKFALITWIGENVSGLQRAKTGTDKTLVKEVVQNFAKEFVISDRKELEEDFIKSELKKAGGANYDAQTE
B7: sp¦Q8WU90¦ZC3HF_HUMAN (protein, UniProt Q8WU90 1-426, looked up)
Zinc finger CCCH …: MPPKKQAQAGGSKKAEQKKKEKIIEDKTFGLKNKKGAKQQKFIKAVTHQVKFGQQNPRQVAQSEAEKKLKKDDKKKELQELNELFKPVVAAQKISKGADPKSVVCAFFKQGQCTKGDKCKFSHDLTLERKCEKRSVYIDARDEELEKDTMDNWDEKKLEEVVNKKHGEAEKKKPKTQIVCKHFLEAIENNKYGWFWVCPGGGDICMYRHALPPGFVLKKDKKKEEKEDEISLEDLIERERSALGPNVTKITLESFLAWKKRKRQEKIDKLEQDMERRKADFKAGKALVISGREVFEFRPELVNDDDEEADDTRYTQGTGGDEVDDSVSVNDIDLSLYIPRDVDETGITVASLERFSTYTSDKDENKLSEASGGRAENGERSDLEEDNEREGTENGAIDAVPVDENLFTGEDLDELEEELNTLDLEE
B8: sp¦P13667¦PDIA4_HUMAN (protein, UniProt P13667 21-645, looked up)
Protein disulfide-isomerase A4: VAGAEGPDEDSSNRENAIEDEEEEEEEDDDEEEDDLEVKEENGVLVLNDANFDNFVADKDTVLLEFYAPWCGHCKQFAPEYEKIANILKDKDPPIPVAKIDATSASVLASRFDVSGYPTIKILKKGQAVDYEGSRTQEEIVAKVREVSQPDWTPPPEVTLVLTKENFDEVVNDADIILVEFYAPWCGHCKKLAPEYEKAAKELSKRSPPIPLAKVDATAETDLAKRFDVSGYPTLKIFRKGRPYDYNGPREKYGIVDYMIEQSGPPSKEILTLKQVQEFLKDGDDVIIIGVFKGESDPAYQQYQDAANNLREDYKFHHTFSTEIAKFLKVSQGQLVVMQPEKFQSKYEPRSHMMDVQGSTQDSAIKDFVLKYALPLVGHRKVSNDAKRYTRRPLVVVYYSVDFSFDYRAATQFWRSKVLEVAKDFPEYTFAIADEEDYAGEVKDLGLSESGEDVNAAILDESGKKFAMEPEEFDSDTLREFVTAFKKGKLKPVIKSQPVPKNNKGPVKVVVGKTFDSIVMDPKKDVLIEFYAPWCGHCKQLEPVYNSLAKKYKGQKGLVIAKMDATANDVPSDRYKVEGFPTIYFAPSGDKKNPVKFEGGDRDLEHLSKFIEEHATKLSRTKEEL
B9: sp¦Q13177¦PAK2_HUMAN (protein, UniProt Q13177 2-524, looked up)
Serine/threonine-protein …: SDNGELEDKPPAPPVRMSSTIFSTGGKDPLSANHSLKPLPSVPEEKKPRHKIISIFSGTEKGSKKKEKERPEISPPSDFEHTIHVGFDAVTGEFTGMPEQWARLLQTSNITKLEQKKNPQAVLDVLKFYDSNTVKQKYLSFTPPEKDGFPSGTPALNAKGTEAPAVVTEEEDDDEETAPPVIAPRPDHTKSIYTRSVIDPVPAPVGDSHVDGAAKSLDKQKKKTKMTDEEIMEKLRTIVSIGDPKKKYTRYEKIGQGASGTVFTATDVALGQEVAIKQINLQKQPKKELIINEILVMKELKNPNIVNFLDSYLVGDELFVVMEYLAGGSLTDVVTETCMDEAQIAAVCRECLQALEFLHANQVIHRDIKSDNVLLGMEGSVKLTDFGFCAQITPEQSKRSTMVGTPYWMAPEVVTRKAYGPKVDIWSLGIMAIEMVEGEPPYLNENPLRALYLIATNGTPELQNPEKLSPIFRDFLNRCLEMDVEKRGSAKELLQHPFLKLAKPLSSLTPLIMAAKEAMKSNR
B10: sp¦P29218¦IMPA1_HUMAN (protein, UniProt P29218 1-277, looked up)
Inositol monophosphatase 1: MADPWQECMDYAVTLARQAGEVVCEAIKNEMNVMLKSSPVDLVTATDQKVEKMLISSIKEKYPSHSFIGEESVAAGEKSILTDNPTWIIDPIDGTTNFVHRFPFVAVSIGFAVNKKIEFGVVYSCVEGKMYTARKGKGAFCNGQKLQVSQQEDITKSLLVTELGSSRTPETVRMVLSNMEKLFCIPVHGIRSVGTAAVNMCLVATGGADAYYEMGIHCWDVAGAGIIVTEAGGVLMDVTGGPFDLMSRRVIAANNRILAERIAKEIQVIPLQRDDED
B11: sp¦Q99436¦PSB7_HUMAN (protein, UniProt Q99436 44-277, looked up)
Proteasome subunit beta type-7: TTIAGVVYKDGIVLGADTRATEGMVVADKNCSKIHFISPNIYCCGAGTAADTDMTTQLISSNLELHSLSTGRLPRVVTANRMLKQMLFRYQGYIGAALVLGGVDVTGPHLYSIYPHGSTDKLPYVTMGSGSLAAMAVFEDKFRPDMEEEEAKNLVSEAIAAGIFNDLGSGSNIDLCVISKNKLDFLRPYTVPNKKGTRLGRYRCEKGTTAVLTEKITPLEIEVLEETVQTMDTS
B12: sp¦Q92900¦RENT1_HUMAN (protein, UniProt Q92900 1-1129, looked up)
Regulator of nonsense …: MSVEAYGPSSQTLTFLDTEEAELLGADTQGSEFEFTDFTLPSQTQTPPGGPGGPGGGGAGGPGGAGAGAAAGQLDAQVGPEGILQNGAVDDSVAKTSQLLAELNFEEDEEDTYYTKDLPIHACSYCGIHDPACVVYCNTSKKWFCNGRGNTSGSHIVNHLVRAKCKEVTLHKDGPLGETVLECYNCGCRNVFLLGFIPAKADSVVVLLCRQPCASQSSLKDINWDSSQWQPLIQDRCFLSWLVKIPSEQEQLRARQITAQQINKLEELWKENPSATLEDLEKPGVDEEPQHVLLRYEDAYQYQNIFGPLVKLEADYDKKLKESQTQDNITVRWDLGLNKKRIAYFTLPKTDSGNEDLVIIWLRDMRLMQGDEICLRYKGDLAPLWKGIGHVIKVPDNYGDEIAIELRSSVGAPVEVTHNFQVDFVWKSTSFDRMQSALKTFAVDETSVSGYIYHKLLGHEVEDVIIKCQLPKRFTAQGLPDLNHSQVYAVKTVLQRPLSLIQGPPGTGKTVTSATIVYHLARQGNGPVLVCAPSNIAVDQLTEKIHQTGLKVVRLCAKSREAIDSPVSFLALHNQIRNMDSMPELQKLQQLKDETGELSSADEKRYRALKRTAERELLMNADVICCTCVGAGDPRLAKMQFRSILIDESTQATEPECMVPVVLGAKQLILVGDHCQLGPVVMCKKAAKAGLSQSLFERLVVLGIRPIRLQVQYRMHPALSAFPSNIFYEGSLQNGVTAADRVKKGFDFQWPQPDKPMFFYVTQGQEEIASSGTSYLNRTEAANVEKITTKLLKAGAKPDQIGIITPYEGQRSYLVQYMQFSGSLHTKLYQEVEIASVDAFQGREKDFIILSCVRANEHQGIGFLNDPRRLNVALTRARYGVIIVGNPKALSKQPLWNHLLNYYKEQKVLVEGPLNNLRESLMQFSKPRKLVNTINPGARFMTTAMYDAREAIIPGSVYDRSSQGRPSSMYFQTHDQIGMISAGPSHVAAMNIPIPFNLVMPPMPPPGYFGQANGPAAGRGTPKGKTGRGGRQKNRFGLPGPSQTNLPNSQASQDVASQPFSQGALTQGYISMSQPSQMSQPGLSQPELSQDSYLGDEFKSQIDVALSQDSTYQGERAYQHGGVTGLSQY

One test relates to human HL60 cells. Description: SWATH-MS proteomics, differential protein representation, akirin2 KO vs WT HL60 cells. Type of test: cell-based. The following applies: SWATH-MS, akirin2 KO vs WT HL60 cells; over-represented in KO. The method in brief: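 Three biological replicates per genotype; 150 µg protein FASP/trypsin digested; IDA library (3 µg digest); SWATH variable windows, 5 µg/sample, 3.6 s cycle; gradient 5–30% B 120 min then 30–60% B 15 min; 1% global FDR; TAS normalization.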
B1: the “Fold Change” value is 2.923 and the “Log (Fold Change)” value was 0.4659.

Take B2: the “Fold Change” value was 2.847 and the “Log (Fold Change)” value is 0.4544.

The test is the same for the next values; noted with them: akirin2 KO vs WT HL60 cells; sheet "Over-represented in KO".
On to B3, for which the “Fold Change” value is 1.154 and the “Log (Fold Change)” value is reported as 0.06211.

Take B4: the “Fold Change” value was 1.125 and the “Log (Fold Change)” value was determined as 0.05126.

As for B5, the “Fold Change” value worked out at 1.163 and the “Log (Fold Change)” value turned out to be 0.06574.

For B6, the “Fold Change” value came to 1.126 and the “Log (Fold Change)” value was 0.0517.

As to B7, the “Fold Change” value is given as 1.158 and the “Log (Fold Change)” value is recorded as 0.06384.

B8: the “Fold Change” value is on record as 1.162 and the “Log (Fold Change)” value was 0.06526.

On to B9, for which the “Fold Change” value was 1.114 and the “Log (Fold Change)” value turned out to be 0.04699.

With B10, the “Fold Change” value turned out to be 1.12 and the “Log (Fold Change)” value came to 0.04931.

Regarding B11, the “Fold Change” value worked out at 1.138 and the “Log (Fold Change)” value is listed as 0.056.

In the case of B12, the “Fold Change” value is 1.105 and the “Log (Fold Change)” value is 0.04317.
